What all share (conditions): both partners purified
The target of test [1] is T1, Asf1 (1–154) (D. melanogaster, UniProt Q9V464 1-154).
T1 construct: Anti-silencing factor 1 (Asf1), D. melanogaster, amino acids 1-154; modified pET-14p construct
T1 sequence (looked up): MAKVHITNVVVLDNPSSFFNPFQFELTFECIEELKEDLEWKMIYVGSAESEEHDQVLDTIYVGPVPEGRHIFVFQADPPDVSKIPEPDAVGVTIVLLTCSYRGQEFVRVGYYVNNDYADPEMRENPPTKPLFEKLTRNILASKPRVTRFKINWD
Nature of the test: ITC; MicroCal VP-ITC, 25 °C, 20 mM HEPES pH 7.5, 150 mM NaCl; typically 100 μM Hairless in the syringe and 10 μM Asf1 in the cell; one-site binding model. (Isothermal titration calorimetry measures the heat released or taken up as one component is titrated into another.)

For test [2], the target named is T1, Asf1 (1–154). Described as above. The source holds these as a separate data set.
Test [3] has as its target T2, Asf1-HA-MBP (full-length Drosophila Asf1) (Drosophila melanogaster, UniProt Q9V464 1-218).
T2 construct: Anti-silencing factor 1 (Asf1), Drosophila melanogaster, full length; HA-tagged region derived by PCR from the pJG4-5 construct; also called Asf-HA; HA-tagged Asf1; source: E. coli UT580, purified (amylose beads); not shown: HA, N-terminal, kept
T2 sequence (looked up): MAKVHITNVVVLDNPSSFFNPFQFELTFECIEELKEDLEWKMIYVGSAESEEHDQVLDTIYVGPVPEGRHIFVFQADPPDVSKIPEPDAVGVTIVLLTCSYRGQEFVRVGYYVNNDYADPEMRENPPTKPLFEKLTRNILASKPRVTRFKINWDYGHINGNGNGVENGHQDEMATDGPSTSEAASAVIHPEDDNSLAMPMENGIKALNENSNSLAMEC
Description: co-IP; Myc-trap: purified Asf1-HA-MBP or Su(H)-GST mixed 1:1 with NTCTmyc-MBP peptides, about 10 min at 4 °C, 150 mM NaCl, 50 mM Tris pH7.5, 0.1% SDS; Myc-tagged H peptides trapped on anti-Myc nanobody magnetic beads 1 h at 4 °C; Western blot with anti-Myc, anti-HA, anti-GST.

Test [4] deals with T3, Su(H)-GST fusion protein (Su(H) codons 288–594) (Drosophila melanogaster, UniProt P28159 288-594).
T3 construct: also called GST Su(H); GST-tagged Su(H); source: E. coli UT580, purified (glutathione-sepharose 4B)
T3 sequence (P28159 288-594): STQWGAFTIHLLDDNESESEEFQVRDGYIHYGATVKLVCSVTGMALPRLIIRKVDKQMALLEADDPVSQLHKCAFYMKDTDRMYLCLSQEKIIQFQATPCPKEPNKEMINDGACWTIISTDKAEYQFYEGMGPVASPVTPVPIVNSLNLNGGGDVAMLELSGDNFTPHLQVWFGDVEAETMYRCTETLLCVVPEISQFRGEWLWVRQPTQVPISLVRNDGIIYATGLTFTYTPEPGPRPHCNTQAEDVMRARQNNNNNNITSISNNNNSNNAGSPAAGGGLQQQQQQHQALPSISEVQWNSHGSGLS
Described as above.

B1: H (232–358) (domain or fragment, Drosophila melanogaster, UniProt Q02308 232-358, looked up)
chain: GGRLQFFKDGKFILELARSKDGDKSGWVSVTRKTFRPPSAATSATVTPTSAVTTAYPKNENSTSLSFSDDNSSIQSSPWQRDQPWKQSRPRRGISKELSLFFHRPRNSTLGRAALRTAARKRRRPHE
notes: Hairless (H), Drosophila, residues 232-358; His-SUMO fusion from a modified pET-28b+ vector; also called Hairless 232–358
For the molecule B1, in test [1], the stoichiometry N (in general, the number of molecules, sites or subunits per partner or assembly) is 1. Also, in test [2], the Ka amounted to 250000 M⁻¹, the Kd (commonly the equilibrium constant for the complex coming apart) amounted to 4200 nM and the dH is -8.6 kcal/mol.

B2: Hairless 315–369 myc-MBP (domain or fragment, Drosophila melanogaster, UniProt Q02308 315-369, looked up)
chain: PWKQSRPRRGISKELSLFFHRPRNSTLGRAALRTAARKRRRPHEPLTTSEDQQPI
notes: Hairless (H), Drosophila melanogaster, residues 315-369; also called aa 315–369; source: E. coli UT580, purified (amylose beads); not shown: Myc, N-terminal, kept
Regarding B2, the binding result in test [3] is listed as “binds”.

B3: H (315–358) (domain or fragment, Drosophila melanogaster, UniProt Q02308 315-358, looked up)
chain: PWKQSRPRRGISKELSLFFHRPRNSTLGRAALRTAARKRRRPHE
notes: Hairless (H), Drosophila, residues 315-358; His-SUMO fusion from a modified pET-28b+ vector; also called Hairless 315–358
With B3, in test [2], the Ka stood at 680000 M⁻¹, the Kd was 1700 nM and the dH is -8.7 kcal/mol.

B4: NTCTmyc-MBP (Hairless Ser 212 - Ile 369) (domain or fragment, Drosophila melanogaster, UniProt Q02308 212-369, looked up)
chain: SFDMGRTPISTHGNNSWGGYGGRLQFFKDGKFILELARSKDGDKSGWVSVTRKTFRPPSAATSATVTPTSAVTTAYPKNENSTSLSFSDDNSSIQSSPWQRDQPWKQSRPRRGISKELSLFFHRPRNSTLGRAALRTAARKRRRPHEPLTTSEDQQPI
notes: Hairless (H), Drosophila melanogaster, NTCT region Ser 212 - Ile 369; source: E. coli UT580, purified (amylose beads); not shown: Myc, N-terminal, kept
As to B4, the binding result in test [3] and in test [4] was “binds” throughout.

For the origin of these results see article PMC9858708, “Genetic and Molecular Interactions between H^ΔCT, a Novel Allele of the Notch Antagonist Hairless, and the Histone Chaperone Asf1 in Drosophila melanogaster” (Genes, 2023).
